# Source: patent publication US20170240635A1 (AGENCY FOR SCIENCE TECHNOLOGY AND RESEARCH, published 2017)
# T1: human LAG-3 coupled to human Fc (human, UniProt P18627 23-450, limits assumed)
# T1 construct: ELISA coating antigen; not shown: human Fc
# T1 sequence (looked up): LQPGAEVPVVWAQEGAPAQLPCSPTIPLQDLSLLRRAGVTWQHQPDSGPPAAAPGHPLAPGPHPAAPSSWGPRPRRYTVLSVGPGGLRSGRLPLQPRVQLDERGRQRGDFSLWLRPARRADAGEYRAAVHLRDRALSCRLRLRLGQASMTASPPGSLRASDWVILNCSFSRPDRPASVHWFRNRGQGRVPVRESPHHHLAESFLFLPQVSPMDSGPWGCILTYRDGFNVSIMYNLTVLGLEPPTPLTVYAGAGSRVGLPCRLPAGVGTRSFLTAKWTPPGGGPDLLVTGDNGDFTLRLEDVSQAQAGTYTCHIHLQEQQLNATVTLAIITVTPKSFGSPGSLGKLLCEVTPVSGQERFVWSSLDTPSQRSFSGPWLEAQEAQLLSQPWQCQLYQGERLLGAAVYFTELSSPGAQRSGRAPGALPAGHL
# T2: hICOS-Fc (human, UniProt Q9Y6W8)
# T2 construct: also called human ICOS
# T2 sequence (antigen, looked up): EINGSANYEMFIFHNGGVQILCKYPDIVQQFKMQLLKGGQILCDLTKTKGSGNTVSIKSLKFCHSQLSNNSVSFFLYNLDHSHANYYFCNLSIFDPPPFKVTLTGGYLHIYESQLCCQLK
# Experiments:
# [1] = target: T3, human PD-1 coupled to human Fc (human, UniProt Q15116 25-167, limits assumed); experiment: SPR (ProteOn XPR36); human PD-1-Fc immobilised, crude Fab extract flown over
# T3 construct: also called human-PD-1 coupled to Fc; not shown: human Fc
# Method: Briefly, human or mouse PD-1 coupled to human Fc was immobilised on a sensor chip compatible with the Proteon XPR36 bioanalyser (Biorad). Crude Fab extracts (or the control antibodies) were then flown onto the chip and the association/dissociation of each candidate Fab was then recorded and analysed, the affinity (KD) was calculated.
# [2] = target: T4, hCTLA4-Fc (human, UniProt P16410); experiment: ELISA; antigen coated 350 ng/well, goat anti-human Fab-HRP, absorbance 450-670 nm
# T4 construct: also called human CTLA-4; human CTLA4
# Method: (§1) Anti-PD-1 antibodies were tested in an ELISA assay for their ability to bind to other members of the CD28 family.
# (§2) Briefly, ELISA plates were coated with 350 ng/well of one of the following antigens coupled to human Fc in carbonate buffer: human PD-1, human PD-L1, human TIM-3, human LAG-3, human ICOS, human CTLA4, human BTLA, human CD28, mouse TIM-3, or rhesus PD-1. The plate was then blocked with a solution of casein. After extensive washes in PBS Tween-20, antibodies were added into the ELISA wells in the presence of 7% milk in PBS. After 90 minutes at room temperature under agitation and extensive washes, a goat anti-human Fab antibody coupled to HRP was added. One hour later, plates were washed and TMB substrate added. The reaction was stopped with 1M HCl and optical density measured at 450 nm with a reference at 670 nm.
# [3] = target: T1, human LAG-3 coupled to human Fc; experiment: as above
# Method: as §1, §2
# [4] = target: T5, mTim3-Fc (mouse, UniProt Q8VIM0); experiment: as above
# T5 construct: also called mouse TIM-3
# Method: as §1, §2
# [5] = target: T6, human CD28 coupled to human Fc (human, UniProt P10747 19-152, limits assumed); experiment: as above
# T6 construct: ELISA coating antigen; not shown: human Fc
# Method: as §1, §2
# [6] = target: T7, human PD-L1 coupled to human Fc (human, UniProt Q9NZQ7 19-239, limits assumed); experiment: as above
# T7 construct: ELISA coating antigen; not shown: human Fc
# Method: as §1, §2
# [7] = target: T8, human TIM-3 coupled to human Fc (human, UniProt Q8TDQ0 22-200, limits assumed); experiment: as above
# T8 construct: not shown: human Fc
# Method: as §1, §2
# [8] = target: T2, hICOS-Fc; experiment: as above
# Method: as §1, §2
# [9] = target: T9, human BTLA coupled to human Fc (human, UniProt Q7Z6A9 31-150, limits assumed); experiment: as above
# T9 construct: ELISA coating antigen; not shown: human Fc
# Method: as §1, §2
# [10] = target: T10, PD-1 on exhausted human T cells (human, UniProt Q15116 25-288); experiment: flow cytometry (MFI); IgG4 on human T cells activated 7 days with allogeneic DCs, fluorescent secondary antibody
# T10 construct: whole, on cells; T cells exhausted by 7 days of culture with allogeneic monocyte-derived dendritic cells
# Method: 50,000 T cells isolated from a healthy donor were incubated in the presence of 5,000 monocyte-derived DCs from another donor for 7 days at 37° C. Antibodies, expressed as IgG4, were incubated with such activated T cells for 30 minutes in PBS. After a wash in PBS, a fluorescent labelled secondary antibody was added for 30 minutes and then washed in PBS. Cells were resuspended in FACS buffer and binding of the antibody to the cells was monitored by flow cytometry (FIGS. 6 and 7).
# T7 sequence (Q9NZQ7 19-239 limits assumed): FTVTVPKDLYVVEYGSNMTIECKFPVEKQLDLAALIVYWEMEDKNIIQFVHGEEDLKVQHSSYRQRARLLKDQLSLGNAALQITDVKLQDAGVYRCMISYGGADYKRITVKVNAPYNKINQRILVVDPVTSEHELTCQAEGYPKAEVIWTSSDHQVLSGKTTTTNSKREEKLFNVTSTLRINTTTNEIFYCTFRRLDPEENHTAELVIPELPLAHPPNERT
# T3 sequence (Q15116 25-167 limits assumed): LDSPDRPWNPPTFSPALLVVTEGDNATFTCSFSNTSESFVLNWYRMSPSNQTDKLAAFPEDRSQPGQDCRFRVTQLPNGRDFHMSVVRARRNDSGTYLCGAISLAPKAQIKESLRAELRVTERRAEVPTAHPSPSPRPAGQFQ
# T10 sequence (Q15116 25-288): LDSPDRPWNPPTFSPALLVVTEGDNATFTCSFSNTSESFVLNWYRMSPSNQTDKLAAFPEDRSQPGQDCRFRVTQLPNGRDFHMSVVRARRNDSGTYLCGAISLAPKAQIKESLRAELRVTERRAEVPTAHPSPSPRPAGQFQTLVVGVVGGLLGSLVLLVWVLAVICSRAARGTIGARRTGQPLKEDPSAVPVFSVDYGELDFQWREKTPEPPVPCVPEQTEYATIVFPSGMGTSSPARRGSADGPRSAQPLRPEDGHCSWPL
# T5 sequence (Q8VIM0 20-191 limits assumed): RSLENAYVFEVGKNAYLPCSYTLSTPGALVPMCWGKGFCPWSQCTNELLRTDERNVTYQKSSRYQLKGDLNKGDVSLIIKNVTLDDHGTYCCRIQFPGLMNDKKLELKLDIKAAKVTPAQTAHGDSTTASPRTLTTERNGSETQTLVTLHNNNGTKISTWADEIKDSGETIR
# T9 sequence (Q7Z6A9 31-150 limits assumed): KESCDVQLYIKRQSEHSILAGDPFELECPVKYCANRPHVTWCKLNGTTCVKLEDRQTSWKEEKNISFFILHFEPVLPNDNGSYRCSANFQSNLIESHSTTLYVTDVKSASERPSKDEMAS
# T4 sequence (P16410 37-162 limits assumed): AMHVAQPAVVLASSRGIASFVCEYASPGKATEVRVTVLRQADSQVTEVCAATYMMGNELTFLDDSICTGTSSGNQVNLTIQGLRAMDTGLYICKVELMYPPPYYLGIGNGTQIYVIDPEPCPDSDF
binder,measurement,setting,value
"anti-PD-1 antibody clone G2 (Fab) (Fab, V domains shown, Crude Fab extract in SPR) VH: QVQLVESGGGVVQPGRSLRLSCAASGFTFSSYGMHWVRQAPGKGLEWVAVISYDGSNKYYADSVKGRFTISRDNSKNTLYLQMNSLRAEDTAVYYCASDLGAGPYYYGMDVWGQGTTVTVSS VL: not shown",Kd,[1],0.1 nM
same,binding result,[2],no binding (tested: not given)
same,binding result,[3],no binding (tested: not given)
same,binding result,[4],no binding (tested: not given)
same,binding result,[5],no binding (tested: not given)
same,binding result,[6],no binding (tested: not given)
same,binding result,[7],no binding (tested: not given)
same,binding result,[8],no binding (tested: not given)
same,binding result,[9],no binding (tested: not given)
"G2 (antibody, IgG4, V domains shown, also called anti-PD-1 antibody clone G2 (human IgG4)) VH: QVQLVESGGGVVQPGRSLRLSCAASGFTFSSYGMHWVRQAPGKGLEWVAVISYDGSNKYYADSVKGRFTISRDNSKNTLYLQMNSLRAEDTAVYYCASDLGAGPYYYGMDVWGQGTTVTVSS VL: not shown",EC50,[10],0.78 nM
"anti-PD-1 antibody clone A3 (Fab) (Fab, V domains shown, Flown as crude Fab extract in SPR) VH: QVQLVQSGGGVVQPGRSLRLSCAASGFTFSSYGMHWVRQAPGKGLEWVAVISYDGSNKYYADSVKGRFTISRDNSKNTLYLQMNSLRAEDTAVYYCASDLGAGPYYYGKDHWGQGTTVTVSS VL: LPVLTQPPSASGTPGQRVTISCSGSSSNIKFNSVNWYQQLPGTAPKLLIYSNNQRPSGVPDRFSGSKSGTSASLAISGLQSEDEADYFCASWDDVLYGSVFGGGTKLTVL",Kd,[1],0.2 nM
same,binding result,[2],no binding (tested: not given)
same,binding result,[3],no binding (tested: not given)
same,binding result,[4],no binding (tested: not given)
same,binding result,[5],no binding (tested: not given)
same,binding result,[6],no binding (tested: not given)
same,binding result,[7],no binding (tested: not given)
same,binding result,[8],no binding (tested: not given)
same,binding result,[9],no binding (tested: not given)
"G1 (antibody, IgG4, V domains shown, also called anti-PD-1 antibody clone G1 (human IgG4)) VH: QVQLVESGGGVVQPGRSLRLSCAASGFTFSSYGMHWVRQAPGKGLEWVAVISYDGSNKYYADSVKGRFTISRDNSKNTLYLQMNSLRAEDTAVYYCASDLGAGPYYYGMDVWGQGTTVTVSS VL: not shown",EC50,[10],0.738 nM
"H9 (antibody, IgG4, V domains shown, also called anti-PD-1 antibody clone H9 (human IgG4)) VH: QVQLVESGGGVVQPGRSLRLSCAASGFTFSSYGMHWVRQAPGKGLEWVAVISYDGSNKYYADSVKGRFTISRDNSKNTLYLQMNSLRAEDTAVYYCASDLGAGPYYYGMDVWGQGTTVTVSS VL: not shown",EC50,[10],0.375 nM
"G10 (antibody, IgG4, V domains shown, also called anti-PD-1 antibody clone G10 (human IgG4)) VH: QVQLVESGGGVVQPGRSLRLSCAASGFTFSSYGMHWVRQAPGKGLEWVAVISYDGSNKYYADSVKGRFTISRDNSKNTLYLQMNSLRAEDTAVYYCASDYGAGPYYYGMDVWGQGTTVTVSS VL: not shown",EC50,[10],0.532 nM
"D4 (antibody, IgG4, V domains shown, also called anti-PD-1 antibody clone D4 (human IgG4)) VH: QVQLVESGGGVVQPGRSLRLSCAASGFTFSSYGMHWVRQAPGKGLEWVAVISYDGSNKYYADSVKGRFTISRDNSKNTLYLQMNSLRAEDTAVYYCASDLGAGPYYYGMDVWGQGTTVTVSS VL: QSVLTQPPSASGTPGQRVTISCSGSSSNIKFNSVNWYQQLPGTAPKLLIYSNNQRPSGVPDRFSGSKSGTSASLAISGLQSEDEADYYCASWDDYVRGTMFGGGTKLTVL",EC50,[10],0.318 nM
"C4 (antibody, IgG4, V domains shown, also called anti-PD-1 antibody clone C4 (human IgG4)) VH: QVQLVESGGGVVQPGRSLRLSCAASGFTFSSYGMHWVRQAPGKGLEWVAVISYDGSNKYYADSVKGRFTISRDNSKNTLYLQMNSLRAEDTAVYYCASDLGAGPYYYGLDVWGQGTTVTVSS VL: not shown",EC50,[10],0.281 nM
"B6 (antibody, IgG4, V domains shown, also called anti-PD-1 antibody clone B6 (human IgG4)) VH: QVQLVESGGGVVQPGRSLRLSCAASGFTFSSYGMHWVRQAPGKGLEWVAVISYDGSNKYYADSVKGRFTISRDNSKNTLYLQMNSLRAEDTAVYYCASDYGAGPYYYGMDVWGQGTTVTVSS VL: not shown",EC50,[10],0.158 nM
"anti-PD-1 antibody clone A10 (Fab) (Fab, V domains shown, Crude Fab extract in SPR) VH: QVQLVQSGGGVVQPGRSLRLSCAASGFTFSSYGMHWVRQAPGKGLEWVAVISYDGSNKYYADSVKGRFTISRDNSKNTLYLQMNSLRAEDTAVYYCASDLGAGPYYYGKDVWGQGTTVTVSS VL: LPVLTQPPSASGTPGQRVTISCSGSSSNIKFNSVNWYQQLPGTAPKLLIYSNNQRPSGVPDRFSGSKSGTSASLAISGLQSEDEADYFCASWDDYYYGTIFGGGTKLTVL",Kd,[1],0.08 nM
same,binding result,[2],no binding (tested: not given)
same,binding result,[3],no binding (tested: not given)
same,binding result,[4],no binding (tested: not given)
same,binding result,[5],no binding (tested: not given)
same,binding result,[6],no binding (tested: not given)
same,binding result,[7],no binding (tested: not given)
same,binding result,[8],no binding (tested: not given)
same,binding result,[9],no binding (tested: not given)
"E1 (antibody, IgG4, V domains shown, also called anti-PD-1 antibody clone E1 (human IgG4)) VH: QVQLVESGGGVVQPGRSLRLSCAASGFTFSSYGMHWVRQAPGKGLEWVAVISYDGSNKYYADSVKGRFTISRDNSKNTLYLQMNSLRAEDTAVYYCASDLGAGPYYYGMDVWGQGTTVTVSS VL: not shown",EC50,[10],0.542 nM
"anti-PD-1 antibody clone H9 (Fab) (Fab, V domains shown, Crude Fab extract in SPR) VH: QVQLVESGGGVVQPGRSLRLSCAASGFTFSSYGMHWVRQAPGKGLEWVAVISYDGSNKYYADSVKGRFTISRDNSKNTLYLQMNSLRAEDTAVYYCASDLGAGPYYYGMDVWGQGTTVTVSS VL: not shown",binding result,[2],no binding (tested: not given)
same,binding result,[3],no binding (tested: not given)
same,binding result,[4],no binding (tested: not given)
same,binding result,[5],no binding (tested: not given)
same,binding result,[6],no binding (tested: not given)
same,binding result,[7],no binding (tested: not given)
same,binding result,[8],no binding (tested: not given)
same,binding result,[9],no binding (tested: not given)
"F2 (antibody, IgG4, V domains shown, also called anti-PD-1 antibody clone F2 (human IgG4)) VH: QVQLVESGGGVVQPGRSLRLSCAASGFTFSSYGMHWVRQAPGKGLEWVAVISYDGSNKYYADSVKGRFTISRDNSKNTLYLQMNSLRAEDTAVYYCASDLGAGPYYYGMDVWGQGTTVTVSS VL: QSVLTQPPSASGTPGQRVTISCSGSSSNIKFNSVNWYQQLPGTAPKLLIYSNNQRPSGVPDRFSGSKSGTSASLAISGLQSEDEADYYCSSWDDDARGTIFGGGTKLTVL",EC50,[10],0.446 nM
"H4 (antibody, IgG4, V domains shown, also called anti-PD-1 antibody clone H4 (human IgG4)) VH: QVQLVESGGGVVQPGRSLRLSCAASGFTFSSYGMHWVRQAPGKGLEWVAVISYDGSNKYYADSVKGRFTISRDNSKNTLYLQMNSLRAEDTAVYYCASDLGSGYYLYGMDVWGQGTTVTVSS VL: not shown",EC50,[10],0.189 nM
